This note sets out measurements from US20180282410A1 (Hoffmann-La Roche, published 2018).

The target of assay [1] is T1, full-length human Robo 4 (on cells) (human, UniProt Q8WZ75 28-1007).
T1 sequence: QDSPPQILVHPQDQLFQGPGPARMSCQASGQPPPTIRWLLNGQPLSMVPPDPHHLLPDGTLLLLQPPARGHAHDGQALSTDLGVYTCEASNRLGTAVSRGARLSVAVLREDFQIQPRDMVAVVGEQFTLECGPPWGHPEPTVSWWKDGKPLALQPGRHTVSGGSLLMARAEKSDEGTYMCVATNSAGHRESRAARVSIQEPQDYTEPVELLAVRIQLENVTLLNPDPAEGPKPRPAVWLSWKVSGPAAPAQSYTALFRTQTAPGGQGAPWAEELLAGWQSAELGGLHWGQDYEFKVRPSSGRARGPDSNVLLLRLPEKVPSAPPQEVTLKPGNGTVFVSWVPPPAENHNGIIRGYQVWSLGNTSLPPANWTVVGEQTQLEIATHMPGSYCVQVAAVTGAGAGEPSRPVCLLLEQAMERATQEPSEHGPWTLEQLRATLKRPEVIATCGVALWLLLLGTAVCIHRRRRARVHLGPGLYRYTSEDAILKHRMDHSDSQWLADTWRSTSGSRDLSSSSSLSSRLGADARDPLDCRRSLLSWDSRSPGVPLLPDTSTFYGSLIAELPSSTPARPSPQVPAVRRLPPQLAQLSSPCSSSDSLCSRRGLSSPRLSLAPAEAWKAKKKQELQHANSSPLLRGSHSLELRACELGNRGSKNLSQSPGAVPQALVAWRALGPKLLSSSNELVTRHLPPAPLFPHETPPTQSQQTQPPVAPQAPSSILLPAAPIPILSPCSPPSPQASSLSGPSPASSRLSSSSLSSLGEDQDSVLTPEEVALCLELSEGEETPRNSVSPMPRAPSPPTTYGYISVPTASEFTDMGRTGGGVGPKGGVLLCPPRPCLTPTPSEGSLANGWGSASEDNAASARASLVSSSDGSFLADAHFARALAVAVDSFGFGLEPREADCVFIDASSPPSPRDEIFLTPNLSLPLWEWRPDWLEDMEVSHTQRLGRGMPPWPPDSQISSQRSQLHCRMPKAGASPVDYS
As to the kind of experiment: cell-based or functional assay.

Assay [2] addresses T1, full-length human Robo 4 (on cells). The experiment in a line: cell-based or functional assay. This is another data set of the same source.
In assay [3] the target is T2, mouse Robo 4 on MS-1 mouse endothelial cells (mouse, UniProt Q8C310 28-1012).
T2 sequence: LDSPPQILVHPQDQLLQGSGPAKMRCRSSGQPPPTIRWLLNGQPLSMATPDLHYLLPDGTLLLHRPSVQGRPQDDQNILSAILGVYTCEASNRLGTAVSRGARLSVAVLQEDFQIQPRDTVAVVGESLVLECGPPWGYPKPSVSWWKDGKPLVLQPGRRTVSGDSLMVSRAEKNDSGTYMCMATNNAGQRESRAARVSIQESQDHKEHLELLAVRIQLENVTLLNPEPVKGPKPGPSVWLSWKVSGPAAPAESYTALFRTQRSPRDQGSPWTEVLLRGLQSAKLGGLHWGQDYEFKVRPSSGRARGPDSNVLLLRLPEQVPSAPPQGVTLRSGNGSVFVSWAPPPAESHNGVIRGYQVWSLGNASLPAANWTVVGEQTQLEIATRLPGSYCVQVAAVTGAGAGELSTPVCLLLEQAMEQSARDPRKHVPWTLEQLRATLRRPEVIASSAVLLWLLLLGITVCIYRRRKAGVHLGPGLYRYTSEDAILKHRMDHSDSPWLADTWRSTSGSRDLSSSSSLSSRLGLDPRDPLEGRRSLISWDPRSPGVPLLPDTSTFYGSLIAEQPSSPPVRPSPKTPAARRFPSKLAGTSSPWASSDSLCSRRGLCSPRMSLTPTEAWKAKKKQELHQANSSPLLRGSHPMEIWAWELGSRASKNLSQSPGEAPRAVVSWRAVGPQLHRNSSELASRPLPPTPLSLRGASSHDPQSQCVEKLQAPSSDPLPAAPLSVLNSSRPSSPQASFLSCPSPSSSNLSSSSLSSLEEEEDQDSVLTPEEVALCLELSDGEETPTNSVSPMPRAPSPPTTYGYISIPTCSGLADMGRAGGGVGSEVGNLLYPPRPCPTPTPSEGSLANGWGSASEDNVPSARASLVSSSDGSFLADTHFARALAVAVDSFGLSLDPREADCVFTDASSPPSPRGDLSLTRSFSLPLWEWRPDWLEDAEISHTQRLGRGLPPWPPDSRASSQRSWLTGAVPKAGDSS
The experiment in a line: cell-based or functional assay.

In assay [4] the target is T1, full-length human Robo 4 (on cells). As to the kind of experiment: cell-based or functional assay. This is another data set of the same source.
Assay [5] deals with T2, mouse Robo 4 on MS-1 mouse endothelial …. As to the kind of experiment: cell-based or functional assay. This is another data set of the same source.
The target is the same in assay [6]. The experiment in a line: cell-based or functional assay. The source holds these as a separate data set.
Assay [7] has as its target T3, recombinant human Robo1 antigen (human, UniProt Q9Y6N7 59-886, limits assumed).
T3 construct: limits of the construct and tags are not described in the text; also called human Robol
The experiment in a line: ELISA, hybridoma supernatant.

Like-named read-outs stand apart in the source and are kept apart here.

T3 sequence (Q9Y6N7 other isoform, or with tags, fused parts or gaps limits assumed): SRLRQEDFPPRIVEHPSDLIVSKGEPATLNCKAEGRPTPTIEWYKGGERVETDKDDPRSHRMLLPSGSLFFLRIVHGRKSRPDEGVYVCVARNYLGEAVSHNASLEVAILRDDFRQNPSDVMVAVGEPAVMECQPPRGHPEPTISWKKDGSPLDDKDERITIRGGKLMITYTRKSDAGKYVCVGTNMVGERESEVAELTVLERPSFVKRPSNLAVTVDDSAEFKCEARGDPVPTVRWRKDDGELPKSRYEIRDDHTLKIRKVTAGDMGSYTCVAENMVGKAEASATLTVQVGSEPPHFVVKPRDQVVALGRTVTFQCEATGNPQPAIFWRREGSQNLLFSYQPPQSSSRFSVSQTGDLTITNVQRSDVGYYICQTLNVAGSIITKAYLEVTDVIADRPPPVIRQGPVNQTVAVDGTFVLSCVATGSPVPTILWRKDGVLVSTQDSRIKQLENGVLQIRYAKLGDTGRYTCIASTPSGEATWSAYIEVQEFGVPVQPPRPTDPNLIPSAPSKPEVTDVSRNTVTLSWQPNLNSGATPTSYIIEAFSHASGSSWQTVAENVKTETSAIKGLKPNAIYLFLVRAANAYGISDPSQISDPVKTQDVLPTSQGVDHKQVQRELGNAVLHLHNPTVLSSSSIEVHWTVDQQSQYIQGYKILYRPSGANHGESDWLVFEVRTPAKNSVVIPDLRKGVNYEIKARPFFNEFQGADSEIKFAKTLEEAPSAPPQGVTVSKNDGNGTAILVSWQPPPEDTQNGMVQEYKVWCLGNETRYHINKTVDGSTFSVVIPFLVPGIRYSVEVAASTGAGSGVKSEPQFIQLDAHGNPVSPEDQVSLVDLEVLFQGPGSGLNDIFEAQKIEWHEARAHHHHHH

B1: Molecule J, 1+1 Fab-CrossFab (VH/VL exchange in CD3 binder, CD3 binder V9, Robo 4 binder 01F05) (bispecific antibody)
chain 1: QVQLKQSGAELVKPGASVKISCKTSVYTFTYGYMHWVEQKPGQGLEWIGRIDPDSGNSMYNQKFQGRATLTRDKSSSTVYMELRSLTSEDSAVYYCARSMRYSGYRDYALDLWGQGTQVTVSSASTKGPSVFPLAPSSKSTSGGTAALGCLVKDYFPEPVTVSWNSGALTSGVHTFPAVLQSSGLYSLSSVVTVPSSSLGTQTYICNVNHKPSNTKVDKKVEPKSCDGGGGSGGGGSDIQMTQSPSSLSASVGDRVTITCRASQDIRNYLNWYQQKPGKAPKLLIYYTSRLESGVPSRFSGSGSGTDYTLTISSLQPEDFATYYCQQGNTLPWTFGQGTKVEIKSSASTKGPSVFPLAPSSKSTSGGTAALGCLVKDYFPEPVTVSWNSGALTSGVHTFPAVLQSSGLYSLSSVVTVPSSSLGTQTYICNVNHKPSNTKVDKKVEPKSC
chain 2: QLVLTQSPSASASLGASVKLTCTLSSQHSSYGITWLQQHPDKAPKYVMYLKSDGSHTKGADIPDRFSGSSSGVHRYLSISNVQPEDEAIYFCVTYDSTHVFGSGTQLTVLGQPKAAPSVTLFPPSSEELQANKATLVCLISDFYPGAVTVAWKADSSPVKAGVETTTPSKQSNNKYAASSYLSLTPEQWKSHRSYSCQVTHEGSTVEKTVAPTECS
chain 3: EVQLVESGGGLVQPGGSLRLSCAASGYSFTGYTMNWVRQAPGKGLEWVALINPYKGVSTYNQKFKDRFTISVDKSKNTAYLQMNSLRAEDTAVYYCARSGYYGDSDWYFDVWGQGTLVTVSSASVAAPSVFIFPPSDEQLKSGTASVVCLLNNFYPREAKVQWKVDNALQSGNSQESVTEQDSKDSTYSLSSTLTLSKADYEKHKVYACEVTHQGLSSPVTKSFNRGEC
B1: the “EC50 of T-cell mediated killing of HUVECs (LDH release, human pan T cells, E:T 5:1, 22 h)” value in assay [1] turned out to be 0.026 nM. For the same molecule, in assay [2], the “EC50 of T-cell mediated killing of HUVECs (LDH release, human PBMCs, E:T 10:1), 24 h” value amounted to 0.204 nM and the “EC50 of T-cell mediated killing of HUVECs (LDH release, human PBMCs, E:T 10:1), 48 h” value stood at 0.127 nM. Besides, the “EC50 of T-cell mediated killing of MS-1 cells (LDH release, human pan T cells, E:T 5:1, 17 h)” value in assay [3] came out at 0.004 nM. Also, in assay [4], the “EC50 of T-cell mediated killing of HUVECs (LDH release, human PBMCs, E:T 10:1), 24 h” value was 0.105 nM and the “EC50 of T-cell mediated killing of HUVECs (LDH release, human PBMCs, E:T 10:1), 48 h” value was 0.0472 nM. In addition, in assay [5], the “EC50 of T-cell mediated killing of MS-1 cells (LDH release, human PBMCs, E:T 10:1), 24 h” value turned out to be 0.294 nM and the “EC50 of T-cell mediated killing of MS-1 cells (LDH release, human PBMCs, E:T 10:1), 48 h” value is 0.106 nM.

B2: Molecule K, 1+1 Fab-CrossFab (VH/VL exchange in CD3 binder, CD3 binder 2C11, Robo 4 binder 01F05) (bispecific antibody)
chain 1: DIQMTQSPSSLPASLGDRVTINCQASQDISNYLNWYQQKPGKAPKLLIYYTNKLADGVPSRFSGSGSGRDSSFTISSLESEDIGSYYCQQYYNYPWTFGPGTKLEIKSSASTKGPSVFPLAPSSKSTSGGTAALGCLVKDYFPEPVTVSWNSGALTSGVHTFPAVLQSSGLYSLSSVVTVPSSSLGTQTYICNVNHKPSNTKVDKKVEPKSCGGGGSGGGGSQVQLKQSGAELVKPGASVKISCKTSVYTFTYGYMHWVEQKPGQGLEWIGRIDPDSGNSMYNQKFQGRATLTRDKSSSTVYMELRSLTSEDSAVYYCARSMRYSGYRDYALDLWGQGTQVTVSSASTKGPSVFPLAPSSKSTSGGTAALGCLVKDYFPEPVTVSWNSGALTSGVHTFPAVLQSSGLYSLSSVVTVPSSSLGTQTYICNVNHKPSNTKVDKKVEPKSCD
chain 2: QLVLTQSPSASASLGASVKLTCTLSSQHSSYGITWLQQHPDKAPKYVMYLKSDGSHTKGADIPDRFSGSSSGVHRYLSISNVQPEDEAIYFCVTYDSTHVFGSGTQLTVLGQPKAAPSVTLFPPSSEELQANKATLVCLISDFYPGAVTVAWKADSSPVKAGVETTTPSKQSNNKYAASSYLSLTPEQWKSHRSYSCQVTHEGSTVEKTVAPTECS
chain 3: EVQLVESGGGLVQPGKSLKLSCEASGFTFSGYGMHWVRQAPGRGLESVAYITSSSINIKYADAVKGRFTVSRDNAKNLLFLQMNILKSEDTAMYYCARFDWDKNYWGQGTMVTVSSASVAAPSVFIFPPSDEQLKSGTASVVCLLNNFYPREAKVQWKVDNALQSGNSQESVTEQDSKDSTYSLSSTLTLSKADYEKHKVYACEVTHQGLSSPVTKSFNRGEC
For B2, the “EC50 of T cell mediated killing of MS-1 cells by murine splenocytes (LDH release, E:T 10:1, 48 and 72 h)” value in assay [6] is 1.3 nM.

B3: 01E06 hybridoma clone (Armenian hamster IgG, supernatant) (antibody, V domains shown)
VH: EVQLVESGGGLSQPGNSLKLSCEASGFTFRNYDMSWVRQAPGKGLEWVAYISSGGGPIYYVDAVKGRFTISRDNAKNLLFLQMNNLRSEDTAVYYCARDLADIGVFDYWGQGTMVTVSS
VL: DFKMTQSPDILSPSLGESVTITCQSSQNIYSNLAWYQQKPGEHPKLLIYTASILADGIPSRFTGSGSGTQFSLKISSLQPDDVANYYCQQYVYYRTFGPGTKLEIK
With B3, the binding result in assay [7] is on record as “no binding”.

B4: 01F05 hybridoma clone (Armenian hamster IgG, supernatant) (antibody, V domains shown)
VH: QVQLKQSGAELVKPGASVKISCKTSVYTFTYGYMHWVEQKPGQGLEWIGRIDPDSGNSMYNQKFQGRATLTRDKSSSTVYMELRSLTSEDSAVYYCARSMRYSGYRDYALDLWGQGTQVTVSS
VL: QLVLTQSPSASASLGASVKLTCTLSSQHSSYGITWLQQHPDKAPKYVMYLKSDGSHTKGADIPDRFSGSSSGVHRYLSISNVQPEDEAIYFCVTYDSTHVFGSGTQLTVLG
As for B4, the binding result in assay [7] is listed as “no binding”.

B5: 01F09 hybridoma clone (Armenian hamster IgG, supernatant) (antibody, V domains shown)
VH: QIQLQESGPGLVKPSQSLSLTCSVTGYSISSGSLWTWIRQFPGNNLEWMGYISYAGGIDYNPSLTSRISITRDTSRNQFFLQLESVTTQDTATYYCATPGGYPFHFDYWGQGTMVTVSS
VL: QPVLTQSPSASASLGASVKLTCTLNSQFSTYNIGWYQQHRDKPPKYVMFVKGDGGHSKADGIPDRFSGSSSGADRYLTISNIQAEDEAIYFCGADYNNAGQYGCVFGSGTHFTVLG
As to B5, the binding result in assay [7] is “no binding”.
